Measured values as given in the nanobody polyreactivity screen of Harvey et al. (2022).

Test: yeast display, Sf9 membrane polyspecificity reagent, FACS + sequencing; frameworks hold sequencing errors
Summary of the method: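 Genes from sorted yeast were amplified by colony PCR, read by MiSeq 2 × 250 sequencing and filtered on CDR length. These cells carried a synthetic nanobody library in Saccharomyces cerevisiae BJ5465 and were sorted by FACS into low and high (top ~1%) gates on anti-HA and streptavidin fluorescence. Polyreactivity is labelled according to the gate of origin.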

| Sequence | polyreactivity (PSR sort gate) |
| --- | --- |
| QVQLVESGGGLVQAGGSLRLSCAASGRTFGYYTMGWSRQAPGKERDLVATISSDGTTNYADSVKGRFTISRDNAKNTVYLQMNSLKPEDTAVYYCNADFRLQYYYRIYDYWGQGTQVTVSS | low polyreactivity |
| QVQLVESGGGLVQAGGSLRLSCAASGFTFASNGRGGYRQAPGKERELVAVIDWSDDSTYYADSVKGRFTISRDNAKNTVYLQMNSLKPEDTAVYYCNADDWWGGYDYWGQGTQVTVSS | low polyreactivity |
| QVQLVESGGGLVQAGGSLRLSSAASGFIFTDYAMGWYIEAPGKEREFVAAIDWSGGNTYYADSVKGRFTISRDNAKNTVYLQMNSLKPEDTAVYYCAASGSAREYDYWGQGSQVTVSS | low polyreactivity |
| QVQLVESGGGLVQAGGSLRLSCAASGRTFPSYAKGLYRQAPGKERELVASISRGASTNYADSVMGRFTISRDNAKNCVFLQMNSLKPEDTAVYFWAANDSWVYTYYYWGQGTQVTVSS | high polyreactivity |
| QVQLVESGGGLVQAGGSLRLSCAASGSTFRYYSMGWYRQAPGKERELVASISSGGSTNYADSVKGRFTISRDNAKNTVYLQMNSLKPGDTAVYYCNADSWTVNRRYYYYRYEYWGQGTQVTVSS | low polyreactivity |
| QVQLVESGGGLVQAGGSLRLSCAATGSTFGPYVMGWYRQAPGKERELVAVISGGSTDYADSVKGRFTISRDNAKNTVYLQMNTLKPEDTAVYYCNAVLYVQDRLTRVDYDYWGQGTQVTVSS | high polyreactivity |
| QVQLVESGGGLVQAGGSLRLSCAASGLTFRINAMGWYRQAPGKERELVAAITDSGTSTSYADSVKGRFTISRDNAKNTVYLQMKSLKPEDTAVYYCAADVRPGYYLYRSWGAYDYWGQGTQVTVSS | low polyreactivity |
| QVQLVESGGGLVQAGGSLRLSCAASGSIFYYNAMGWYRQAPGKERELVATITSGGSTYYADSVKGRFTISRDNAKNTVYLQMNSLKPEDTAVYYCAPRSQSIRYTYIRSYYWGQGTQVTVSS | low polyreactivity |
| QVQLVESGGGLVQAGGSLRLTCAASGFTIAWNAMGWYRPSPGKERELVAAISAGGGSTYYADSVKGRFTISRDNAKNTVYLQMNSLKPEDTAVYYCAARRTFKYGSYAYYYWGQGTQVTVSS | high polyreactivity |
| QVQLVESGGGLVQAGGSLRLSCAASGSTFDPNVMGWYRQAPGKERELVAAITWSGGSTSYADSVKGRFTISRDNAKNTVYLQMNSLKPEDTAVYYCAADWHSWRWGYYYWGQGTQVTVSS | low polyreactivity |
| QVQLVESGGGLVQAGGSLRLSCAPSGRTFRRYAMGWYRQAPGKEMEFVAAISRRTASTYYADSVKGRFTISRDNAKNTDYLQMNSLKPEDTAVYYCATKSGYSVGNYRYGYWVQGTQVTVSS | low polyreactivity |
| QVQLVESGGGLVQAGGTLRLSCAASGSTFTDYDMGWYRQAPGQERELVAAITSGGSTNYADSVKGRFTISRDNAKNTVYLQMNSLKPEDTAVYYCAAADADRKYDFWGQGTQVTVSS | low polyreactivity |
| QVQLVESGGGLVQAGGSLRLSCAASGSIFWNYAMGWYRQAPGKERELVASITSGGSTNYADSVKGRFTISRDNEKNTVYLQMNSLKQEDTAVYSCNTDDDSSYTGYYSWGQGTQVTVSS | low polyreactivity |
| QVQLVESAGGLVQAGGSLRLSCAASGFIFYSNAMGWYRQAPGKERELVAGISRGGSTYYADSVKGRFTISRDNAKNTVYLQMNSLKPEDTAVYYCAASPSSYGRYGYWGQGTQVTVSS | low polyreactivity |
| QVQLVESGVGLVQAGGSLRLSCAASGITFIPYAMGWYRQAPGKERELVASISDGGGTNYADSVKGLFTISRDNAKNTVYLQKNSLNPEDTAVYYCATYASTYSYYGGDYWGQGTPVTVSS | low polyreactivity |
| QVQLVESGGGLVQAGGSLRLSCAASGSTFGYYAMGWYRQAPGKERELVAAITRRSGRTYYADSVKGRFTISRDNAKNTVYLQMNSLKPEDTAVYYCNKVYPTYYYYRGGPTEYDYWGQGTQVTVSS | high polyreactivity |
| QVQLVESGGGLVQAGGSLRLSCAASGRIFFYYAMGWYRQAPGKEREMVAAISWSGSSTYYADSVKGRFTISRDNAKNTVYLQMNSLKPEDTAVYYCAADYYIDYFYYDYWGQGTQVTVSS | high polyreactivity |
| QVQLVESAGGLVQAGGSLRLSCAASGSTQVIYHMGWNRQAPGNERYIVAAITYGGGRTYYADSVKGRFTISSDNAKNTVYLQMNSLKPEDTAYYYCAAYSYYYTWNPGYWGQGTQVTVSS | high polyreactivity |
| QVQLVESGGGLVQAGGSLRLSCAASGSIFWSYAMGWYRQAPGKERELVASISRSTGRTRYADSVKGRFTISRDNAKNTVYLQMNSLKPEDTAVYYCAATRRAGFTTAKFDYWGQGTQVTVSS | high polyreactivity |
| QVQLVESGGGLVQAGGSLRLSCAASGSIICVNAMGWYRQATGKERELVAAISSTGGSTYYADSVKGRFTISRDNAKNTVYLQMNSLKPEDTAVYYCNTDYSKSIGDGYAGFDYWGQGTQVTVSS | low polyreactivity |
| QVQLVESGGGLVQAGGSLRLSCAASGLTFSVNAMGWYRQAPGKERELVAAINYGGGSTYYADSVKGRFTISRDNAKNTVYLQMNSLKPEDTAVYYCAAVPYPRGKGYDYWGQGTQVTVSS | high polyreactivity |
| QVQLVESGGGLVQAGGSLRLSCAASGRIGYYAMGWNRQAPGKERELVAAISYGGGSTYYADSVKGRFTISRDNAKNTVYLLMNSLKPEDTAVYYCAARWGKSWRGYGYWGQGTQVSVSS | high polyreactivity |

| Sequence | polyreactivity (PSR sort gate) |
| --- | --- |
| QLQLVESGGGLVQAGGSLRLSCAASGSTFPEYVMGWYRQAPAKERELVAAITRRGGRTYYADSVKGRFTISRDNAKNTVYFQMNSLKPEDTAVYYCAAKSAVVVGMDSWGQGTQVTVSS | high polyreactivity |
| QVQLVESGGGLVQAGGSLRLSCAASGSTFDVYAMGWYRQAPGKERELVAAITWDGDRTYYADSVKGRFTISRDNAKNTVYLQMNSLKPEDTAVYYCNVDTYVEYPHDYWGQGTQVTVSS | low polyreactivity |
| QVQLQESGGGLVQASGSIFHEPNMGWYRQAPGKERELVAGISSGANTYYADSVKGRFTISRDNAKNTVYLQMNSLKPEDTAVYHCAVVVHLYTDLRYWGQDTQVTVSS | high polyreactivity |
| QVQLVESWGGLVQAAGSLRLSCAASGFIFRYNTMGSSRQAPAKERESVAAFSVSGARTYYADSVKGRFTISRDNAKNTVYLLMNSLKTEDTAVYYCNRRYPFYSRYNNDYWGQGTQVTVSS | high polyreactivity |
| QVQLVESGGGLVQAGGILRLSCAASGFTFQNNAMGWYRQAPGKERELVARITRSDGSTYYADSVKGRFTISRDNAKNTVYLQMNSLKPEDNAVYYCAARYGLLGSSRGGYWGQGTQVTVSS | low polyreactivity |
| QVQLVESGGGLVQAGGSLRLSCAASGFIFYAYAMGWYRQAPGKERELVAAITGSGGRTYYADSVKGRFTISRDNAKNTVYLQMNSLKPEDTAVYYCAAYYTSGGSRTYDYWGQGTQVTVSS | high polyreactivity |
| QVHLVESGGGLVQAGGSLRLSCAASGITFEGYAMGWYRQAPGKERELVAAIRSSGTSTYYADSVKGRFTISRDNAKNTVYLQMNSLKPEDTAVYYCNRARSSSRYDYWGQGTQVTVSS | low polyreactivity |
| QVQLVESGGGLVQAGGSLRLSCAASGSIFRKNAMGWSRPAPGKERELVAVSTSSGASTYYADSVKGRFTISRDNAKNTVYVQMNSLKPEETAVYYCNAPSFYTKKMYSWGQGTQVTVSS | high polyreactivity |
| QVQLVESGGGLVQAGGSLRLSCAASGFTFGSNAMGWYRQAPGKEREFVAAISGSGDRTYYADSVKGRFTISRDNAKNTVYLQMNSLKPEDTAVYYCATSVRQNYFYSYDDWGQGTQVTVSS | high polyreactivity |
| QVQLVESGGGLFQAGGSLRLSCAPSGSIFTTYAMGWYRQAPGKERELVAAITDTCSTNYADSVKGRFTISRDNAKNTVYLQMNSLKPEDTAVYYCAVDLGYEYDWGQGTEVTVSS | low polyreactivity |
| QVQLQESGGGLVQAGGSLRLSCAASGYISLAQTIGWYRQAPGTEREFVASIALGSSTYYTDSVKGSFTISRDNAKTTVYLQMNSLKPEDTAVYYCAARVGASYAHDYWGQGTQVTVSS | low polyreactivity |
| QVQLVESGGGLVQAGGSLRLSCAASGSTFSGNAMGWYRQAPGKERELVAAITRSGSRTYYADSVKGRFTISRDNAKNTVYLQMNSLKPEDTAVYYCAKVGRTGDDYYYWGQGTQVTVAS | high polyreactivity |
| QVQLVESGGGLVQAGGSLRLSCAASGSIFQDNTMGWYRQAPGKESELVAAISWSATSTYYADSVKGRFTISRDNAKNTVYLQMNSLNPEDTAVYYCAARYWLFPPGYNYWGQGTQVNVSS | high polyreactivity |
| QVQLVESGGGLVQAGGSLLLSCAASGYTFGTYDMGWYRQAPGKERELVAAISIGGSTNYADSVKGRFTISRDNAKNTVYLQMNSLKPEDTAVYYCAAEVNVGTLLLSVIVEDGDYWGQGTQVTVSS | low polyreactivity |
| QVQLVESGGGLVQAGGSLRLSCAASGSTFVPYALGWYRQAPGKERELVAAITTSGGNTYYADSVKGRFTISRDNAKNTVYLQMNSLKPEDTAVYYCAADTFRRFDYWGQGTQVTVSS | low polyreactivity |
| QVQLVESGGGLVQAGGRLRLSCAASGSIFQYNAMGWSRQAPGKERELVAAISRSGGSTYYADSVKGRFTISRDNAKNTVYLQMNSLKPEDTAVYYCHAVLGYYSPYDYWGQGTQVTVSS | low polyreactivity |
| QVQLEESGGGLVQAGGSLRIRCAASGSTFVGYAMGWYRQAPGKERELVAAITSSGGRTYYADSVKGRFTISRDNAKNTVYLQMNSLKPEDTAVYYCAAPRARIGGSYDYWGQGTQVTGSS | high polyreactivity |
| QVQHVESGGGLVQAGGSLRLTCAATGFTFATYTMGWYRQAPGKERELFAAISSGGNTNYADSVKGRFTISRDNAKNTVYLQMNSLKPEDTAVYYCARGATLLQYYYWGVYEYDSWGQGTQVTVSS | low polyreactivity |
| QVQLVESGGGLVQAGGSLRLSCSASGFIFWYNAMGWYRQAPGKERELVAAITTAGSTNYADSVKGRFTISRDNAKNTVYLQMNSLKPEDTAVFYCNKVQLRNRYPYRYGFGDVGYWGQGTQVTVSS | low polyreactivity |
| QVQLVESGGGLVQAGGSLRLSCAASGSTLYGNVMGWFRQAPGKERELVATINRGGSTNYADSVKGRFTISRDNAKNTVYLQMNSLKPEDTAVYYCAVYHYSSYEYLGQGTQVTVSS | low polyreactivity |
| QVQLVESGGGLVQAGGSLRLSCAASGFIFYLNAMGWYRQAPGKERELVAAISRGGTTYYADSVKGRFTISRDNAKNTVYLQMNSLIPEDTAVYYCAAKDKRWYSRYYWTGYDYWGQGTQVTVSS | high polyreactivity |
